Patent US20170051261
Numbering of substitutions follows the chain as printed. Names may count otherwise.

B1: A199S/S227A/S287G/A328W/Y332G mutant mouse BChE (protein)
chain: EEDFIITTKTGRVRGLSMPVLGGTVTAFLGIPYAQPPLGSLRFKKPQPLNKWPDIHNATQYANSCYQNIDQAFPGFQGSEMWNPNTNLSEDCLYLNVWIPVPKPKNATVMVWIYGGGFQTGTSSLPVYDGKFLARVERVIVVSMNYRVGALGFLAFPGNPDAPGNMGLFDQQLALQWVQRNIAAFGGNPKSITIFGESSGAASVSLHLLCPQSYPLFTRAILESGSANAPWAVKHPEEARNRTLTLAKFTGCSKENEMEMIKCLRSKDPQEILRNERFVLPSDSILGINFGPTVDGDFLTDMPHTLLQLGKVKKAQILVGVNKDEGTWFLVGGAPGFSKDNDSLITRKEFQEGLNMYFPGVSRLGKEAVLFYYVDWLGEQSPEVYRDALDDVIGDYNIICPALEFTKKFAELENNAFFYFFEHRSSKLPWPEWMGVMHGYEIEFVFGLPLGRRVNYTRAEEIFSRSIMKTWANFAKYGHPNGTQGNSTMWPVFTSTEQKYLTLNTEKSKIYSKLRAPQCQFWRLFFPKVLEMTGDIDETEQEWKAGFHRWSNYMMDWQNQFNDYTSKKESCTAL
B2: purified human butyrylcholinesterase (wild-type human BChE) (protein)
chain: EDDIIIATKNGKVRGMNLTVFGGTVTAFLGIPYAQPPLGRLRFKKPQSLTKWSDIWNATKYANSCCQNIDQSFPGFHGSEMWNPNTDLSEDCLYLNVWIPAPKPKNATVLIWIYGGGFQTGTSSLHVYDGKFLARVERVIVVSMNYRVGALGFLALPGNPEAPGNMGLFDQQLALQWVQKNIAAFGGNPKSVTLFGESAGAASVSLHLLSPGSHSLFTRAILQSGSFNAPWAVTSLYEARNRTLNLAKLTGCSRENETEIIKCLRNKDPQEILLNEAFVVPYGTPLSVNFGPTVDGDFLTDMPDILLELGQFKKTQILVGVNKDEGTAFLVYGAPGFSKDNNSIITRKEFQEGLKIFFPGVSEFGKESILFHYTDWVDDQRPENYREALGDVVGDYNFICPALEFTKKFSEWGNNAFFYYFEHRSSKLPWPEWMGVMHGYEIEFVFGLPLERRDNYTKAEEILSRSIVKRWANFAKYGNPNETQNNSTSWPVFKSTEQKYLTLNTESTRIMTKLRAQQCRFWTSFFPKVLEMTGNIDEAEWEWKAGFHRWNNYMMDWKNQFNDYTSKKESCVGL
B3: A199S/F227A/S287G/A328W/Y332G mutant human BChE (protein)
chain: B2 chain with A199S, F227A, S287G, A328W, Y332G

Biological target: human acyl ghrelin, Q9UBU3
Sequence (Q9UBU3 whole entry, looked up): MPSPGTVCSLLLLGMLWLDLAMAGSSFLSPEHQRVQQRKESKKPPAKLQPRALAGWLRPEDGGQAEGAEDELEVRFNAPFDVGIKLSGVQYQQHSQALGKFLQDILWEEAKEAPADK

Protein	ghrelin hydrolyzing activity in vitro (human ghrelin immunoassay kit: decrease in acyl ghrelin, increase in deacyl ghrelin)	hydrolysis (deacylation) of acyl ghrelin in vitro; residual acyl ghrelin and desacyl ghrelin by immunoassay	time course of acyl ghrelin hydrolysis in vitro
B1	exhibited enhanced activity (e.g., at least 20-fold more activity), comparable to that of wild type mouse BChE	–	–
B2	–	Incubation of a sample containing acyl ghrelin with increasing amounts of human BChE resulted in a decrease in the amount of acyl ghrelin and an increase in the amount of the breakdown product, desacyl ghrelin	A linear hydrolysis rate was observed
B3	exhibited modest activity, comparable to that of wild type human BChE	–	–
